Numbered stars: 1 amine (or outer) side, 2 acyl side, 3 side chain; on linkers, the order of the positions; unused ones are H or OH. Bridge positions count the residues as written; N and C are the ends. Side chains are listed from the residue outwards. Ends that are not written are not given here. * marks the point of attachment. C20 diacid = O=C(O)CCCCCCCCCCCCCCCCCCC(=O)*; γGlu = O=C(O)[C@H](CCC(=O)[*:2])N[*:1]; AEEA = NCCOCCOCC(=O)O
T1: human calcitonin receptor (human, UniProt P30988 25-474)
T1 construct: whole, on cells; Cell membranes of a stably transfected BHK cell line (Assay VII); also called hCTR; hCT
T1 sequence (looked up): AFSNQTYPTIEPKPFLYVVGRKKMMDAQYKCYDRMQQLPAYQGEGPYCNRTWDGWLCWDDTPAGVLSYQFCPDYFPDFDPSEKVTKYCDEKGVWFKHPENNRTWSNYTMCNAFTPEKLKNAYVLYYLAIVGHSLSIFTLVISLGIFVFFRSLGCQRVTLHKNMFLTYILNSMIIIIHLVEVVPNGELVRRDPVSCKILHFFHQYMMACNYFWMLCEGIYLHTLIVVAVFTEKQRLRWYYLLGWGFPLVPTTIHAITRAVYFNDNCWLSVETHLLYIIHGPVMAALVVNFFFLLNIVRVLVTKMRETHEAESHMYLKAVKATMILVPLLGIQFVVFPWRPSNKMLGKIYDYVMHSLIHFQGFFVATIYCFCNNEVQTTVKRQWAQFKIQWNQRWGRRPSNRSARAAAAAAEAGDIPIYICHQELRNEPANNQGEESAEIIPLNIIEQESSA

T2: rat calcitonin receptor (rat, UniProt P32214 25-516)
T2 construct: whole, on cells; Cell membranes of transiently transfected BHK tk'ts 13 cells (Assay VIII); also called rCTR; rCT
T2 sequence (looked up): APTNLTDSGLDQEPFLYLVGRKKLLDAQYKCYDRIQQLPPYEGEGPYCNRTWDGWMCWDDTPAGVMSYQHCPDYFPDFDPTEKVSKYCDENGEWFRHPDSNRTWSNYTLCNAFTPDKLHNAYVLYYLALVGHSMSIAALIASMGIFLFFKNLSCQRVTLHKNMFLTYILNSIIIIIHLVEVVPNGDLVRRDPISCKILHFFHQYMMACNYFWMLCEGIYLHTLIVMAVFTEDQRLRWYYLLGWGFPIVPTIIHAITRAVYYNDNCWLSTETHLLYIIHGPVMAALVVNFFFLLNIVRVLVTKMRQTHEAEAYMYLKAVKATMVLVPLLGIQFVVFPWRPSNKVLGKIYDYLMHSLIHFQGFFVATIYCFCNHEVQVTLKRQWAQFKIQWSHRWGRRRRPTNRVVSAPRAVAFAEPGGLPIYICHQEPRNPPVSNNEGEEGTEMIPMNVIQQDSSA

T3: rat amylin receptor (rat calcitonin receptor + rat RAMP 3) (rat, UniProt P32214 25-516; Q9JJ73 23-147)
T3 construct: whole, on cells; Cell membranes of transiently transfected BHK tk'ts 13 cells (Assay VI); also called rAmylin-R; rat amylin 3(a) receptor
T3 sequence (looked up) 1: T2 sequence (looked up)
T3 sequence (looked up) 2: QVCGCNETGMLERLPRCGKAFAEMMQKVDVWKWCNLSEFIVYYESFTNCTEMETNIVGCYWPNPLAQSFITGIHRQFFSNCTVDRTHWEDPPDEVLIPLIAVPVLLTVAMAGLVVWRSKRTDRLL

T4: human amylin 3(a) receptor (human calcitonin receptor + RAMP-3) (human, UniProt P30988 25-474; O60896 24-148, limits assumed)
T4 sequence (looked up) 1: T1 sequence (looked up)
T4 sequence (looked up) 2: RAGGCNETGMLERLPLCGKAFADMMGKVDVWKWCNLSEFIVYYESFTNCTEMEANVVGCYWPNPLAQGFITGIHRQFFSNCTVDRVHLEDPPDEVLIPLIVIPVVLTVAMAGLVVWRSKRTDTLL

T5: human calcitonin receptor (human, UniProt P30988 25-474)
T5 sequence (looked up): T1 sequence (looked up)

B1: N^ε1-[(4S)-4-carboxy-4-(19-carboxynonadecanoylamino)butanoyl]-[Arg17,Pro21,Pro27]-h-amylin (peptide)
peptide: K([γGlu-C20 diacid])CNTATCATQRLANFLRHSSPNFGAIPSSTNVGSNTY-NH2
modifications: disulfide 2-7; N-terminus assumed
SMILES: CC[C@H](C)[C@H](NC(=O)[C@H](C)NC(=O)CNC(=O)[C@H](Cc1ccccc1)NC(=O)[C@H](CC(N)=O)NC(=O)[C@@H]1CCCN1C(=O)[C@H](CO)NC(=O)[C@H](CO)NC(=O)[C@H](Cc1c[nH]cn1)NC(=O)[C@H](CCCNC(=N)N)NC(=O)[C@H](CC(C)C)NC(=O)[C@H](Cc1ccccc1)NC(=O)[C@H](CC(N)=O)NC(=O)[C@H](C)NC(=O)[C@H](CC(C)C)NC(=O)[C@H](CCCNC(=N)N)NC(=O)[C@H](CCC(N)=O)NC(=O)[C@@H](NC(=O)[C@H](C)NC(=O)[C@@H]1CSSC[C@H](NC(=O)[C@@H](N)CCCCNC(=O)CC[C@H](NC(=O)CCCCCCCCCCCCCCCCCCC(=O)O)C(=O)O)C(=O)N[C@@H](CC(N)=O)C(=O)N[C@@H]([C@@H](C)O)C(=O)N[C@@H](C)C(=O)N[C@@H]([C@@H](C)O)C(=O)N1)[C@@H](C)O)C(=O)N1CCC[C@H]1C(=O)N[C@@H](CO)C(=O)N[C@@H](CO)C(=O)N[C@H](C(=O)N[C@@H](CC(N)=O)C(=O)N[C@H](C(=O)NCC(=O)N[C@@H](CO)C(=O)N[C@@H](CC(N)=O)C(=O)N[C@H](C(=O)N[C@@H](Cc1ccc(O)cc1)C(N)=O)[C@@H](C)O)C(C)C)[C@@H](C)O
notes: Acylated analogue of human amylin; also called compound 48
B2: N^-1-[(4S)-4-carboxy-4-(19-carboxynonadecanoylamino)butanoyl]-Gly[Arg1,Arg17,Pro21,Pro27]-h-amylin (peptide)
peptide: {C20 diacid-γGlu}-GRCNTATCATQRLANFLRHSSPNFGAIPSSTNVGSNTY-NH2
modifications: disulfide 3-8
SMILES: CC[C@H](C)[C@H](NC(=O)[C@H](C)NC(=O)CNC(=O)[C@H](Cc1ccccc1)NC(=O)[C@H](CC(N)=O)NC(=O)[C@@H]1CCCN1C(=O)[C@H](CO)NC(=O)[C@H](CO)NC(=O)[C@H](Cc1c[nH]cn1)NC(=O)[C@H](CCCNC(=N)N)NC(=O)[C@H](CC(C)C)NC(=O)[C@H](Cc1ccccc1)NC(=O)[C@H](CC(N)=O)NC(=O)[C@H](C)NC(=O)[C@H](CC(C)C)NC(=O)[C@H](CCCNC(=N)N)NC(=O)[C@H](CCC(N)=O)NC(=O)[C@@H](NC(=O)[C@H](C)NC(=O)[C@@H]1CSSC[C@H](NC(=O)[C@H](CCCNC(=N)N)NC(=O)CNC(=O)CC[C@H](NC(=O)CCCCCCCCCCCCCCCCCCC(=O)O)C(=O)O)C(=O)N[C@@H](CC(N)=O)C(=O)N[C@@H]([C@@H](C)O)C(=O)N[C@@H](C)C(=O)N[C@@H]([C@@H](C)O)C(=O)N1)[C@@H](C)O)C(=O)N1CCC[C@H]1C(=O)N[C@@H](CO)C(=O)N[C@@H](CO)C(=O)N[C@H](C(=O)N[C@@H](CC(N)=O)C(=O)N[C@H](C(=O)NCC(=O)N[C@@H](CO)C(=O)N[C@@H](CC(N)=O)C(=O)N[C@H](C(=O)N[C@@H](Cc1ccc(O)cc1)C(N)=O)[C@@H](C)O)C(C)C)[C@@H](C)O
notes: Acylated analogue of human amylin, extended by one residue at the N-terminus; also called compound 46
B3: N^ε-[2-[2-[2-[[(4S)-4-carboxy-4-(19-carboxynonadecanoylamino)butanoyl]amino]ethoxy]ethoxy]acetyl]Lys[Arg1,Arg17,Pro21,Pro27,His35]-h-amylin (peptide)
peptide: K([AEEA-γGlu-C20 diacid])RCNTATCATQRLANFLRHSSPNFGAIPSSTNVGSHTY-NH2
modifications: disulfide 3-8; N-terminus assumed
SMILES: CC[C@H](C)[C@H](NC(=O)[C@H](C)NC(=O)CNC(=O)[C@H](Cc1ccccc1)NC(=O)[C@H](CC(N)=O)NC(=O)[C@@H]1CCCN1C(=O)[C@H](CO)NC(=O)[C@H](CO)NC(=O)[C@H](Cc1c[nH]cn1)NC(=O)[C@H](CCCNC(=N)N)NC(=O)[C@H](CC(C)C)NC(=O)[C@H](Cc1ccccc1)NC(=O)[C@H](CC(N)=O)NC(=O)[C@H](C)NC(=O)[C@H](CC(C)C)NC(=O)[C@H](CCCNC(=N)N)NC(=O)[C@H](CCC(N)=O)NC(=O)[C@@H](NC(=O)[C@H](C)NC(=O)[C@@H]1CSSC[C@H](NC(=O)[C@H](CCCNC(=N)N)NC(=O)[C@@H](N)CCCCNC(=O)COCCOCCNC(=O)CC[C@H](NC(=O)CCCCCCCCCCCCCCCCCCC(=O)O)C(=O)O)C(=O)N[C@@H](CC(N)=O)C(=O)N[C@@H]([C@@H](C)O)C(=O)N[C@@H](C)C(=O)N[C@@H]([C@@H](C)O)C(=O)N1)[C@@H](C)O)C(=O)N1CCC[C@H]1C(=O)N[C@@H](CO)C(=O)N[C@@H](CO)C(=O)N[C@H](C(=O)N[C@@H](CC(N)=O)C(=O)N[C@H](C(=O)NCC(=O)N[C@@H](CO)C(=O)N[C@@H](Cc1c[nH]cn1)C(=O)N[C@H](C(=O)N[C@@H](Cc1ccc(O)cc1)C(N)=O)[C@@H](C)O)C(C)C)[C@@H](C)O
notes: Acylated analogue of human amylin, extended by one residue at the N-terminus; also called compound 45
B4: N^α1-[(4S)-4-carboxy-4-(19-carboxynonadecanoylamino)butanoyl]-[Glu14,Arg17,Pro21,Pro27,Pro37]-h-amylin (peptide)
peptide: {C20 diacid-γGlu}-KCNTATCATQRLAEFLRHSSPNFGAIPSSTNVGSNTP-NH2
modifications: disulfide 2-7
SMILES: CC[C@H](C)[C@H](NC(=O)[C@H](C)NC(=O)CNC(=O)[C@H](Cc1ccccc1)NC(=O)[C@H](CC(N)=O)NC(=O)[C@@H]1CCCN1C(=O)[C@H](CO)NC(=O)[C@H](CO)NC(=O)[C@H](Cc1c[nH]cn1)NC(=O)[C@H](CCCNC(=N)N)NC(=O)[C@H](CC(C)C)NC(=O)[C@H](Cc1ccccc1)NC(=O)[C@H](CCC(=O)O)NC(=O)[C@H](C)NC(=O)[C@H](CC(C)C)NC(=O)[C@H](CCCNC(=N)N)NC(=O)[C@H](CCC(N)=O)NC(=O)[C@@H](NC(=O)[C@H](C)NC(=O)[C@@H]1CSSC[C@H](NC(=O)[C@H](CCCCN)NC(=O)CC[C@H](NC(=O)CCCCCCCCCCCCCCCCCCC(=O)O)C(=O)O)C(=O)N[C@@H](CC(N)=O)C(=O)N[C@@H]([C@@H](C)O)C(=O)N[C@@H](C)C(=O)N[C@@H]([C@@H](C)O)C(=O)N1)[C@@H](C)O)C(=O)N1CCC[C@H]1C(=O)N[C@@H](CO)C(=O)N[C@@H](CO)C(=O)N[C@H](C(=O)N[C@@H](CC(N)=O)C(=O)N[C@H](C(=O)NCC(=O)N[C@@H](CO)C(=O)N[C@@H](CC(N)=O)C(=O)N[C@H](C(=O)N1CCC[C@H]1C(N)=O)[C@@H](C)O)C(C)C)[C@@H](C)O
notes: also called compound 8
B5: N^α1-[(4S)-4-carboxy-4-(19-carboxynonadecanoylamino)butanoyl]-[Asp14,Arg17,Pro21,Pro27,Pro37]-h-amylin (peptide)
peptide: {C20 diacid-γGlu}-KCNTATCATQRLADFLRHSSPNFGAIPSSTNVGSNTP-NH2
modifications: disulfide 2-7
SMILES: CC[C@H](C)[C@H](NC(=O)[C@H](C)NC(=O)CNC(=O)[C@H](Cc1ccccc1)NC(=O)[C@H](CC(N)=O)NC(=O)[C@@H]1CCCN1C(=O)[C@H](CO)NC(=O)[C@H](CO)NC(=O)[C@H](Cc1c[nH]cn1)NC(=O)[C@H](CCCNC(=N)N)NC(=O)[C@H](CC(C)C)NC(=O)[C@H](Cc1ccccc1)NC(=O)[C@H](CC(=O)O)NC(=O)[C@H](C)NC(=O)[C@H](CC(C)C)NC(=O)[C@H](CCCNC(=N)N)NC(=O)[C@H](CCC(N)=O)NC(=O)[C@@H](NC(=O)[C@H](C)NC(=O)[C@@H]1CSSC[C@H](NC(=O)[C@H](CCCCN)NC(=O)CC[C@H](NC(=O)CCCCCCCCCCCCCCCCCCC(=O)O)C(=O)O)C(=O)N[C@@H](CC(N)=O)C(=O)N[C@@H]([C@@H](C)O)C(=O)N[C@@H](C)C(=O)N[C@@H]([C@@H](C)O)C(=O)N1)[C@@H](C)O)C(=O)N1CCC[C@H]1C(=O)N[C@@H](CO)C(=O)N[C@@H](CO)C(=O)N[C@H](C(=O)N[C@@H](CC(N)=O)C(=O)N[C@H](C(=O)NCC(=O)N[C@@H](CO)C(=O)N[C@@H](CC(N)=O)C(=O)N[C@H](C(=O)N1CCC[C@H]1C(N)=O)[C@@H](C)O)C(C)C)[C@@H](C)O
notes: also called compound 10

What was measured:
[1] = target: T1, human calcitonin receptor; assay: ratio IC50 human calcitonin receptor / IC50 human amylin receptor
Summary of the method: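 Competition binding by SPA with cell membranes (35 ng/μL) and SPA beads in 50 mM Hepes pH 7.4 with 1 mM CaCl2, 5 mM MgCl2, 0.1% OA and 0.02% Tween20. Incubated 120 min at 25 °C with shaking, then counted.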

[2] = target: T2, rat calcitonin receptor; assay: ratio IC50 rat calcitonin receptor / IC50 rat amylin receptor
[3] = target: T3, rat amylin receptor (rat calcitonin …); assay: SPA competition vs 125I-rat amylin, membranes with rat CTR + rat RAMP3 (Assay VI)
[4] = target: T2, rat calcitonin receptor; assay: SPA competition vs 125I-calcitonin, membranes with rat CTR (Assay VIII)
[5] = target: T4, human amylin 3(a) receptor (human …); assay: cell-based or functional assay
[6] = target: T5, human calcitonin receptor; assay: cell-based or functional assay

Row | Binder | Ratio hCT/hAmylin binding [1] | Ratio rCT/rAmylin binding [2] | IC50 [3] [nM] | IC50 [4] [nM] | hAmylin-R funct. EC50 (pM) [5] [pM] | Ratio hCT/hAmylin funct. [6]
1 | B1 | 69.7 | 201 | 0.558 | 112 | – | –
2 | B2 | 48.9 | 142 | 0.33 | 46.8 | – | –
3 | B3 | 26.8 | 67.1 | 0.623 | 41.8 | – | –
4 | B4 | – | – | – | – | 82 | 1.1
5 | B5 | – | – | – | – | 72 | 1
